According to publication PMC3610634 (PLoS Genetics, 2013):

Target: the molecule itself
Assay: solubility assay (sedimentation) + TEM; recombinant fibrils in 50 mM HEPES, pH 7.5; solubility assay 16.000 g, 30 min, 4°C; negative staining with 1% uranyl acetate

B1: recombinant full-length Ure2p fibrils (natural protein, yeast, UniProt P23202 1-354, looked up)
chain: MMNNNGNQVSNLSNALRQVNIGNRNSNTTTDQSNINFEFSTGVNNNNNNNSSSNNNNVQNNNSGRNGSQNNDNENNIKNTLEQHRQQQQAFSDMSHVEYSRITKFFQEQPLEGYTLFSHRSAPNGFKVAIVLSELGFHYNTIFLDFNLGEHRAPEFVSVNPNARVPALIDHGMDNLSIWESGAILLHLVNKYYKETGNPLLWSDDLADQSQINAWLFFQTSGHAPMIGQALHFRYFHSQKIASAVERYTDEVRRVYGVVEMALAERREALVMELDTENAAAYSAGTTPMSQSRFFDYPVWLVGDKLTIADLAFVPWNNVVDRIGINIKIEFPEVYKWTKHMMRRPAVIKALRGE
binding result: binds
